# Measured values published in patent publication US20250163166A1.
# Assays:
# [1] = target: human FCγRIIIa receptor (human) (UniProt P08637); test: BLI (Octet 96), antibody loaded on sensor, FCγRIIIa 200 nM and 2-fold dilutions in solution
# [2] = target: human FCγRIIIa receptor (human) (UniProt P08637); test: BLI; Ratio of the hIgG (hIgG1) control against itself
# Chain of human FCγRIIIa receptor (human) (P08637 17-208 limits assumed): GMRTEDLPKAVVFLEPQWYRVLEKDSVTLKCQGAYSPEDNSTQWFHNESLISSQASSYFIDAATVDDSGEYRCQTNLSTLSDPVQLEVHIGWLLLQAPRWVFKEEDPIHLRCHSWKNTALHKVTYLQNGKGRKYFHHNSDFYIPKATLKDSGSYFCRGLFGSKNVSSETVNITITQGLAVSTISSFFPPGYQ
substance,measurement,setting,value
control sample hIgG1 (antibody),Kd,[1],88.6 nM
same,Ratio,[2],1
